Laboratory results taken from patent publication US20160368965A1 (IMMATICS BIOTECHNOLOGIES, published 2016).

Molecular target: T1, HLA-A*02:01 (human)
T1 construct: the tested peptide takes its place; also called peptide-receptive MHC molecules; MHC class I
Assay: UV-ligand exchange, anti-β2m ELISA; grade of peptide exchange yield
From the text: Candidate peptides for T cell based therapies according to the present invention were further tested for their MHC binding capacity (affinity). The individual peptide-MHC complexes were produced by UV-ligand exchange, where a UV-sensitive peptide is cleaved upon UV-irradiation, and exchanged with the peptide of interest as analyzed. Only peptide candidates that can effectively bind and stabilize the peptide-receptive MHC molecules prevent dissociation of the MHC complexes. To determine the yield of the exchange reaction, an ELISA was performed based on the detection of the light chain (β2m) of stabilized MHC complexes. The assay was performed as generally described in Rodenko et al. (Rodenko et al., 2006).
96 well MAXISorp plates (NUNC) were coated over night with 2 ug/ml streptavidin in PBS at room temperature, washed 4× and blocked for 1h at 37° C. in 2% BSA containing blocking buffer. Refolded HLA-A*02:01/MLA-001 monomers served as standards, covering the range of 15-500 ng/ml. Peptide-MHC monomers of the UV-exchange reaction were diluted 100 fold in blocking buffer. Samples were incubated for 1 h at 37° C., washed four times, incubated with 2 ug/ml HRP conjugated anti-β2m for 1h at 37° C., washed again and detected with TMB solution that is stopped with […]. Absorption was measured at 450 nm. Candidate peptides that show a high exchange yield (preferably higher than 50%, most preferred higher than 75%) are generally preferred for a generation and production of antibodies or fragments thereof, and/or T cell receptors or fragments thereof, as they show sufficient avidity to the MHC molecules and prevent dissociation of the MHC complexes.

Binder	peptide exchange yield [%]
ALAPATGGGSLLL [ALAPATGGGSLLL (SEQ ID NO: 96)]	50 to 75
AVAAVLTQV [AVAAVLTQV (SEQ ID NO: 103)]	50 to 75
ALDQKVRSV [ALDQKVRSV (SEQ ID NO: 98)]	20 to 50
ALDDMISTL [ALDDMISTL (SEQ ID NO: 97)]	50 to 75
ALADDDFLTV [ALADDDFLTV (SEQ ID NO: 95)]	50 to 75
ALYPGTDYTV [ALYPGTDYTV (SEQ ID NO: 102)]	50 to 75
ALFGAGPASI [ALFGAGPASI (SEQ ID NO: 100)]	50 to 75
ALESFLKQV [ALESFLKQV (SEQ ID NO: 99)]	50 to 75
GLGDFIFYSV [GLGDFIFYSV (SEQ ID NO: 86)]	≥ 75
ALVEENGIFEL [ALVEENGIFEL (SEQ ID NO: 101)]	50 to 75

Other lines, results leading:

peptide exchange yield [%]	Binder
≥ 75	YLTNEGIAHL [YLTNEGIAHL (SEQ ID NO: 92)]
50 to 75	GLLPALVAL [GLLPALVAL (SEQ ID NO: 87)]
20 to 50	QIIDAINKV [QIIDAINKV (SEQ ID NO: 9)]
50 to 75	IIDDTIFNL [IIDDTIFNL (SEQ ID NO: 88)]
50 to 75	SIDSEPALV [SIDSEPALV (SEQ ID NO: 93)]
50 to 75	VMMEEFVQL [VMMEEFVQL (SEQ ID NO: 94)]
50 to 75	LLFNDVQTL [LLFNDVQTL (SEQ ID NO: 91)]
50 to 75	KLADIQIEQL [KLADIQIEQL (SEQ ID NO: 89)]
50 to 75	KLLTPITTL [KLLTPITTL (SEQ ID NO: 90)]
